According to patent US20260034234A1 (AGENSYS, published 2026):

How the values were obtained:
[1] = target: T1, Murine ortholog of 191P4D12, N90S mutant (on PC3 cells) (mouse, UniProt Q8R007 31-508); experiment: FACS titration of Ha22-2(2,4)6.1 on PC3 cells expressing mouse 191P4D12 N90S
T1 construct: whole, on cells; also called murine mutant ortholog
T1 sequence (looked up): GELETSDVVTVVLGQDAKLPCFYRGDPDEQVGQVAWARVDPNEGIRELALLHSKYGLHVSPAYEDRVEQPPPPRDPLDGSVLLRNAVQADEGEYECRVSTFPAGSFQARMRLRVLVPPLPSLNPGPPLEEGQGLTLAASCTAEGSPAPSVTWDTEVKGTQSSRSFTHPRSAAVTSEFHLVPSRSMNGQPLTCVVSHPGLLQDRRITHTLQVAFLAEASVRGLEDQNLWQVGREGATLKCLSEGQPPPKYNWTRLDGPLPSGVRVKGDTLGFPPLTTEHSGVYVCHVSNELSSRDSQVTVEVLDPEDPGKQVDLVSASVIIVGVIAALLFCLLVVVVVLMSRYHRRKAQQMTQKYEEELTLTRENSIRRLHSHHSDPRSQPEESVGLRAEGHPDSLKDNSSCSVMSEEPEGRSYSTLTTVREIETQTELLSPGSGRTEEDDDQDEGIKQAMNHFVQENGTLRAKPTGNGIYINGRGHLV

[2] = target: T2, Murine ortholog of 191P4D12, wild type (on PC3 cells) (mouse, UniProt Q8R007 31-508); experiment: FACS on PC3 cells expressing the murine ortholog
T2 construct: whole, on cells; also called mouse 191P4D12
T2 sequence (looked up): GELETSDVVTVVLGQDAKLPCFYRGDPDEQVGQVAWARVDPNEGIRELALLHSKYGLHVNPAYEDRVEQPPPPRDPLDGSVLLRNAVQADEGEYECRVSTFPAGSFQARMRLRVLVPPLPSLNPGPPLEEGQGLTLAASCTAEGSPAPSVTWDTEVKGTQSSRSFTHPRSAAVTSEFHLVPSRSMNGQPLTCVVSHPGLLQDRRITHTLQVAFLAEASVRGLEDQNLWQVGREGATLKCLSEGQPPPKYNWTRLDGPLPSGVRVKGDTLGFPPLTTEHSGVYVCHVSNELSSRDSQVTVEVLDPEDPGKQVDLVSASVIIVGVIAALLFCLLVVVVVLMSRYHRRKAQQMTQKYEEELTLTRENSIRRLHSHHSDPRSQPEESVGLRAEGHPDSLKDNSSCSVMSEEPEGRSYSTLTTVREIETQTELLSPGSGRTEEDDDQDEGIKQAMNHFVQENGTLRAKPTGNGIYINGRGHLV
Excerpt: (§1) The 191P4D12 protein of human, cynomolgus, rat and murine origin was overexpressed recombinantly in a PC3 cell line to determine cross-reactivity of Ha22-2(2,4)6.1 to these orthologs. It was shown that Ha22-2(2,4)6.1 strongly cross-reacts with cynomolgus and rat orthologs of 191P4D12 (FIG. 23).

[3] = target: T3, Cynomolgus 191P4D12 (on PC3 cells) (cynomolgus monkey, UniProt A0A2K5WES1 32-510); experiment: FACS titration on PC3 cells expressing the cynomolgus ortholog
T3 construct: also called PC3-Cynomolgus-191P4D12; Cyno ortholog
T3 sequence: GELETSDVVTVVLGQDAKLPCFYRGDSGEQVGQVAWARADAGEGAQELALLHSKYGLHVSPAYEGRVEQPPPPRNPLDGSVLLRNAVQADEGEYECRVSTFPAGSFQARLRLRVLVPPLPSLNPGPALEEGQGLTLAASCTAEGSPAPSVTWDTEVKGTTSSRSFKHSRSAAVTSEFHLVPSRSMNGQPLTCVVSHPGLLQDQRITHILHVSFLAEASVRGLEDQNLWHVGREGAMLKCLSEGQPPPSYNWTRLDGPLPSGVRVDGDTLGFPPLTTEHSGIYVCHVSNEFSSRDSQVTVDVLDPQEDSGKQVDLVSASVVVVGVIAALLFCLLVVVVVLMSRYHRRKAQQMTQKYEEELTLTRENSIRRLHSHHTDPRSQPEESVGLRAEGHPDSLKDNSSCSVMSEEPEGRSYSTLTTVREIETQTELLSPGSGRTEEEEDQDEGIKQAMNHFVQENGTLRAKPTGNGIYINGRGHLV

[4] = target: T4, 191P4D12 (human, wild type, on cells) (human, UniProt Q96NY8 32-510); experiment: FACS on PC3-191P4D12 cells
T4 construct: 510 amino acid ORF expressed on PC3, RAT/Rat1(E) cells and present in cancer cell lines and tumor specimens; also called human 191P4D12; wild-type 191P4D12
T4 sequence: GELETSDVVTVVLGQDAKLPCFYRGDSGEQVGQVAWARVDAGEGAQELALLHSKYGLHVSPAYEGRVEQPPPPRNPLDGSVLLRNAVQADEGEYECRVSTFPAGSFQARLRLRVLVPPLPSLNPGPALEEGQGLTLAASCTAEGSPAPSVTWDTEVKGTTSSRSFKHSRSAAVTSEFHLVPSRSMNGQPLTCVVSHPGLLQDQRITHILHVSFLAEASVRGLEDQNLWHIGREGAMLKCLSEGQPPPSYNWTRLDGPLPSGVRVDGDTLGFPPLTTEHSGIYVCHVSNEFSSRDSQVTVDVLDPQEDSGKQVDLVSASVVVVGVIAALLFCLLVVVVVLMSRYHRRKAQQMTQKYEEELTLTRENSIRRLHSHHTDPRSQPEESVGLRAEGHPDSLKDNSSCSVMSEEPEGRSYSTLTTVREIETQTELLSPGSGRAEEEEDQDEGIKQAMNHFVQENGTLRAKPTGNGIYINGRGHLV
Excerpt: as §1

[5] = target: T3, Cynomolgus 191P4D12 (on PC3 cells); experiment: FACS on PC3 cells expressing the cyno ortholog
Excerpt: as §1

[6] = target: T4, 191P4D12 (human, wild type, on cells); experiment: FACS titration of Ha22-2(2,4)6.1 on PC3 cells expressing 191P4D12

EC50 (read off the curve) [1]: ~0.4 nM
EC50 [2]: 70.3 nM
EC50 (read off the curve) [3]: ~0.3 nM
EC50 [4]: 0.28 nM
EC50 [5]: 0.3 nM
EC50 (read off the curve) [6]: ~0.6 nM
B1: Ha22-2(2,4)6.1 MAb (antibody, human IgG1, kappa, V domains shown)
VH: EVQLVESGGGLVQPGGSLRLSCAASGFTFSSYNMNWVRQAPGKGLEWVSYISSSSSTIYYADSVKGRFTISRDNAKNSLSLQMNSLRDEDTAVYYCARAYYYGMDVWGQGTTVTVSS
VL: DIQMTQSPSSVSASVGDRVTITCRASQGISGWLAWYQQKPGKAPKFLIYAASTLQSGVPSRFSGSGSGTDFTLTISSLQPEDFATYYCQQANSFPPTFGGGTKVEIKR
notes: Fully human IgG1 kappa from XenoMouse; Used biotinylated in the Western blot; also called 191P4D12 MAb Ha22-2(2,4)6.1; Ha22-(2,4)6.1 MAb
